According to the RNAGym collection of RNA variant scans (doi:10.7554/elife.80360):

B1: HDV Ribozyme (parent)
chain: GGCCGGCAUGGUCCCAGCCUCCUCGCUGGCGCCGGCUGGGCAACAUUCCGAGGGGACCGUCCCCUCGGUAAUGGCGAAUGGGACCCA

Variants of: B1
Assay: self-cleavage, relative activity (ratio to wild type); higher = more cleavage; co-transcriptional

Row | Variant | self-cleavage
1 | G25A C32A | 0.0848
2 | C24G G74C | 0.109
3 | C24G G74A | 0.124
4 | C24G G31C | 0.0563
5 | G25C C36G | 0.0519
6 | G25C C36A | 0.128
7 | U23C C33U | 0.697
8 | G25C A87U | 0.0773
9 | G25C A87C | 0.07
10 | G25C A71G | 0.131
11 | U23G C26A | 0.739
12 | G25A U79C | 0.0583
13 | G25A U79A | 0.0437
14 | G25C C32A | 0.148
15 | C24A U27A | 0.639
16 | C24A U27C | 0.0791
17 | C24G A70G | 0.0594
18 | C24G C30G | 0.0875
19 | G25C C57A | 0.166
20 | C24G C62A | 0.0272
21 | C24G G53C | 0.0817
22 | C24G G53A | 0.18
23 | C24G C86U | 0.17
24 | U23G U46G | 0.356

Row | Variant | self-cleavage
25 | U23C G39A | 0.519
26 | G25C G80A | 0.0744
27 | C24A A71G | 0.61
28 | C24A A71C | 0.38
29 | C24A A71U | 0.731
30 | G25C U47A | 0.0639
31 | G25A G31C | 0.0739
32 | C24G C48G | 0.0941
33 | C24A G81U | 0.185
34 | U23G U60C | 0.831
35 | C24G C63G | 0.217
36 | U23C U27C | 0.65
37 | G25C G68A | 0.227
38 | C24G A45U | 0.0504
39 | U23G A87C | 0.799
40 | G25C A70G | 0.0573
41 | C24U G40A | 0.701
42 | C24U G40U | 0.337
43 | U23G C63U | 0.469
44 | G25A G39A | 0.172
45 | U23C C85G | 0.869
46 | U23G G31C | 0.178
47 | C24A C84G | 0.563
48 | G25C G73A | 0.116

Row | Variant | self-cleavage
49 | U23C G38U | 0.175
50 | C24U G38A | 0.0863
51 | U23G C58A | 0.877
52 | U23C C86A | 0.857
53 | U23C C86U | 0.6
54 | G25A C36G | 0.0997
55 | G25A C36A | 0.0554
56 | U23A U37A | 0.0997
57 | U23A U37C | 1.08
58 | U23C A87C | 0.929
59 | C24G C84A | 0.123
60 | C24U A56C | 0.973
61 | C24U A56U | 0.401
62 | C24G A78U | 0
63 | C24A C36U | 0.254
64 | C24A C36G | 0.0678
65 | U23G G54A | 0.928
66 | U23G G54U | 0.9
67 | U23C C66A | 0.982
68 | C24G C26A | 0.886
69 | U23C A56U | 0.987
70 | C24A G39U | 0.211
71 | G25C C84G | 0.158
72 | G25C C84U | 0.0314

Row | Variant | self-cleavage
73 | G25C G81C | 0.0449
74 | G25C G81U | 0.151
75 | C24G U60C | 0.277
76 | C24G U60A | 0.264
77 | G25A U69A | 0.222
78 | G25A U69G | 0.233
79 | C24G G81C | 0.032
80 | G25A C44G | 0.0923
81 | U23C A77G | 0.587
82 | U23C A77U | 0.353
83 | G25A G59U | 0.264
84 | G25A G59A | 0.189
85 | G25C G82A | 0.0361
86 | U23G C75U | 0.089
87 | U23C C44A | 0.462
88 | U23C C44G | 0.185
89 | C24U A70G | 0.706
90 | C24U A70C | 0.573
91 | C24A U47A | 0.554
92 | C24U C26U | 0.867
93 | C24U C26G | 0.615
94 | C24G U69A | 0.204
95 | G25A G73C | 0.113
96 | C24G A42U | 0

Row | Variant | self-cleavage
97 | C24G A42G | 0.185
98 | G25C C33A | 0
99 | G25C C33U | 0.0773
100 | C24A G31C | 0.0583
101 | U23C A78C | 0.231
102 | C24A C32A | 0.106
103 | U23A U27G | 0.762
104 | C24A G55A | 0.684
105 | C24U G53C | 0.848
106 | G25A G82C | 0.089
107 | U23C G67C | 0.969
108 | U23C G81A | 0.591
109 | U23C C84A | 0.911
110 | U23C C84U | 0.831
111 | C24U G82A | 0.107
112 | G25A C84G | 0.17
113 | U23G G73C | 0.0773
114 | U23G G73U | 0.0604
115 | U23G G73A | 0.259
116 | C24A G68U | 0.776
117 | C24A G29U | 0.0369
118 | G25A G29A | 0.0567
119 | U23C A70U | 0.917
120 | U23G | 0.731

Row | Variant | self-cleavage
121 | U23C | 0.987
122 | C24G G25A | 0.0959
123 | C24G G25C | 0.145
124 | U23C U60C | 0.858
125 | U23C U60A | 0.877
126 | U23G G52U | 0.585
127 | G25C U37A | 0.0426
128 | U23C C32U | 0.587
129 | U23C C32A | 0.125
130 | U23C G59A | 1.19
131 | U23C G76U | 1.14
132 | U23C G76A | 1.22
133 | U23G A42C | 0
134 | C24U G35C | 0.0339
135 | C24U G35U | 0.131
136 | C24U G35A | 0.372
137 | G25C G74U | 0.108
138 | U23G G28U | 0.0326
139 | U23G G28A | 0.0941
140 | U23G U72C | 0.391
141 | U23G C84A | 0.712
142 | C24U A77G | 0.53
143 | C24U A77U | 0.0791
144 | G25A C66G | 0.376

Row | Variant | self-cleavage
145 | U23A U47G | 0.748
146 | U23A U47A | 0.877
147 | C24G | 0.13
148 | C24A | 0.767
149 | C24U | 0.73
150 | C24U C84U | 0.53
151 | U23A U72G | 0.302
152 | U23G G68C | 0.482
153 | U23G G68U | 0.969
154 | U23G C64G | 0.95
155 | C24A G34A | 0.166
156 | C24A G34C | 0.0852
157 | C24G G35A | 0.124
158 | C24G G35C | 0.0332
159 | C24A G35C | 0.0692
160 | G25U A42G | 0.119
161 | G25A A87G | 0.163
162 | G25A A87U | 0.277
163 | G25C A43U | 0.147
164 | G25C A43G | 0
165 | G25A G38U | 0.0744
166 | G25A G38C | 0.0791
167 | C24A C30A | 0.237
